{
  "source": "paper PMC8202325",
  "molecular_target": "His::PfPLSCR (recombinant full-length Plasmodium falciparum phospholipid scramblase with an N-terminal hexa-histidine affinity tag) (P. falciparum)",
  "assay": "native gel or EMSA; blue native PAGE (NativePAGE Novex Bis-Tris, G250 additive) of eluted fractions of the main SEC peak; protein purified in 250 mM NaCl, 0.5 mM CaCl2, 1 mM TCEP, 0.1 % FC-12, 25 mM HEPES pH 7.5",
  "note": "Values joined by “and” are separate entries in the source; they are usually repeats but may differ in a detail not shown here. Equal values may be shown once.",
  "data": [
    {"substance": "His::PfPLSCR (recombinant full-length Plasmodium falciparum phospholipid scramblase with an N-terminal hexa-histidine affinity tag) (natural protein)", "values": [
      {"measurement": "stoichiometry N", "result": "2 and 4"}
    ]}
  ]
}
